This is an account of results in US20140113854A1 (NATIONAL RESEARCH COUNCIL OF CANADA, published 2014).

Assay [1] addresses T1, Human α-thrombin (human, UniProt P00734 328-363; P00734 364-622). Kind of assay: cell-based or functional assay.
Assay [2] deals with T1, Human α-thrombin. The experiment in a line: cell-based or functional assay. The source holds these as a separate data set.
Assay [3] addresses T1, Human α-thrombin. The experiment in a line: inhibition of thrombin-catalysed hydrolysis of chromogenic substrate S-2366, 25 °C.
Source text: (§1) Human α-thrombin was purchased from Haemotologic Technologies, Inc., VT, USA.
The target of assay [4] is T1, Human α-thrombin. Kind of assay: inhibition of thrombin-catalysed hydrolysis of chromogenic substrate S-2366, 37 °C.
Source text: as §1
Assay [5] has as its target T1, Human α-thrombin. The experiment in a line: thrombin inhibition, 37 °C.
Assay [6] concerns the target T1, Human α-thrombin. Kind of assay: enzyme kinetics, thrombin-catalysed chromogenic substrate hydrolysis, 37 °C.
Assay [7] deals with T1, Human α-thrombin. The experiment in a line: enzyme kinetics, thrombin-catalysed chromogenic substrate hydrolysis, 37 °C, 50 s window.
For assay [8], the target named is T1, Human α-thrombin. Kind of assay: inhibition of human α-thrombin.
Assay [9] has as its target T1, Human α-thrombin. Kind of assay: derived from Ki and punfold (KD = Ki x popen), S-2366 kinetics, 37 °C.
Source text: as §1
For assay [10], the target named is T2, rat-tail collagen type I (rat, UniProt P02454 152-1207; P02466 86-1125).
T2 construct: Used in solution and as randomly deposited or partially aligned hydrogel; Human collagen gels were also prepared; also called collagen hydrogel; rat collagen
T2 sequence (P02454 152-1207 limits assumed, chain 1 of 2): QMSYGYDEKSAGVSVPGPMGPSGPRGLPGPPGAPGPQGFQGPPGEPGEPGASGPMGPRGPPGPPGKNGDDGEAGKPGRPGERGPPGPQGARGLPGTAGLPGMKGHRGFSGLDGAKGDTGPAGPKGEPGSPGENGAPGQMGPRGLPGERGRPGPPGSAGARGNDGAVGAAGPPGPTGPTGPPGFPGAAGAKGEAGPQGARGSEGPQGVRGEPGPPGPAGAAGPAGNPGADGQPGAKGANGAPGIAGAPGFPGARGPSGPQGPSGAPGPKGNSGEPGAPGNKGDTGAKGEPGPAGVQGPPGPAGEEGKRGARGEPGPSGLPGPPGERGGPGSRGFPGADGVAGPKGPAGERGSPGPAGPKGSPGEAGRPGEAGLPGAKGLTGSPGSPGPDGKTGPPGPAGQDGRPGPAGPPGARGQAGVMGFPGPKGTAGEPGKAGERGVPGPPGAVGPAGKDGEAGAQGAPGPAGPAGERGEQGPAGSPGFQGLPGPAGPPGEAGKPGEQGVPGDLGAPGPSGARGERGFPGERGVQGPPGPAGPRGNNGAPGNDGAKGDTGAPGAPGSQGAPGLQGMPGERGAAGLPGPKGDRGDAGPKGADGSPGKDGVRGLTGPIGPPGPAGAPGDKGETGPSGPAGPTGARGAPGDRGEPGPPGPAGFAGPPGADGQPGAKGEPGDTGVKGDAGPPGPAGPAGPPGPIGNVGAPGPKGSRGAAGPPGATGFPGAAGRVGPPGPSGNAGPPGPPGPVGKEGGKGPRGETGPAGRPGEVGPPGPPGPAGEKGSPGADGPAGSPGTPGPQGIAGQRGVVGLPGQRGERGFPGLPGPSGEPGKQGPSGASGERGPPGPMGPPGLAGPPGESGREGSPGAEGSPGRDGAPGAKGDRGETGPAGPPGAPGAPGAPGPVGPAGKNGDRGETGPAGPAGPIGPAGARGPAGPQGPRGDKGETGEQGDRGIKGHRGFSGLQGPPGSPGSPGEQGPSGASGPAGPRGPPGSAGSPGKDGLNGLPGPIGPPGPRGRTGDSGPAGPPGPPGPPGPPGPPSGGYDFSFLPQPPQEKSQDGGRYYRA
T2 sequence (P02466 86-1125 limits assumed, chain 2 of 2): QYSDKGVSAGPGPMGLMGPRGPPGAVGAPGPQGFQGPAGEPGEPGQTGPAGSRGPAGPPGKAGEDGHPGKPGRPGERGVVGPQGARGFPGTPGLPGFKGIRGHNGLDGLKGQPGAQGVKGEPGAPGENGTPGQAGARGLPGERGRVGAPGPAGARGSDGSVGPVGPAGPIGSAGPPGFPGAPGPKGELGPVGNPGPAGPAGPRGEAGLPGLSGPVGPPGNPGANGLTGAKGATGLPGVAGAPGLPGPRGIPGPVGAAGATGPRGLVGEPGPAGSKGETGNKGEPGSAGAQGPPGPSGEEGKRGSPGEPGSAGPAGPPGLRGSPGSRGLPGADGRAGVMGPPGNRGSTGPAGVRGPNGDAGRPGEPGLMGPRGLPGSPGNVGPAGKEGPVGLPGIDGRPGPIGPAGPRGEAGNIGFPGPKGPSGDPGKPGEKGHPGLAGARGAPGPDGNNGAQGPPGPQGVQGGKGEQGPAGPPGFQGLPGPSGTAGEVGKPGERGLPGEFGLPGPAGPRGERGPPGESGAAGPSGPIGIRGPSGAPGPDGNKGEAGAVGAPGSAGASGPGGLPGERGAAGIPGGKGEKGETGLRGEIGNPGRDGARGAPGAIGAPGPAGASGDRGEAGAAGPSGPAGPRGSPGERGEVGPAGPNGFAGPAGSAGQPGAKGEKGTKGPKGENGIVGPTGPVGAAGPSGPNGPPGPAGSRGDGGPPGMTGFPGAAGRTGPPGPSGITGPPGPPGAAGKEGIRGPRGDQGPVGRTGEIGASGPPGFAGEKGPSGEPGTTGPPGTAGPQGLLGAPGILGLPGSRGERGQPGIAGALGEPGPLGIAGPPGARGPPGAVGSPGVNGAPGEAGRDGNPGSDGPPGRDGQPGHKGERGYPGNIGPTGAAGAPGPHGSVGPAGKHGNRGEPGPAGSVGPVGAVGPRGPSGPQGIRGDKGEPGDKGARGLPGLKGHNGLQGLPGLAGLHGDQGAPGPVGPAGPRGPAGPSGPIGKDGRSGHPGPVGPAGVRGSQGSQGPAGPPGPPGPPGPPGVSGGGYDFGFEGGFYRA
Kind of assay: NMR in collagen hydrogel.

Assay [11] has as its target T1, Human α-thrombin. The experiment in a line: inhibition of thrombin-catalysed hydrolysis of chromogenic substrate S-2366, 37 °C. The source holds these as a separate data set.
In assay [12] the target is T1, Human α-thrombin. Kind of assay: cell-based or functional assay. This is another data set of the same source.
Assay [13] deals with T1, Human α-thrombin. The experiment in a line: cell-based or functional assay. The source holds these as a separate data set.
Assay [14] deals with T2, rat-tail collagen type I. Kind of assay: deuterium NMR of collagen gel formed with the peptide; called a semi-quantitative indication of peptide-collagen binding.
In assay [15] the target is T1, Human α-thrombin. Kind of assay: inhibition of thrombin by monovalent active-site moiety; conditions not given at the table.
Assay [16] deals with T2, rat-tail collagen type I. Kind of assay: proton NMR and deuterium coupling constant of collagen gel.

Where a chain is given by its changes, count along the chain named. Positions of bridges follow the written chain, without caps; N, C: chain ends. Non-standard residues stand in square brackets, D forms with d. Chains are numbered I, II in the order given. No end group written: not given here. *: point of attachment. Benzenesulfonyl(4-tBu) = CC(C)(C)c1ccc(S(=O)(=O)*)cc1; dPip = O=C(O)[C@H]1CCCCN1

B1: MH2 (peptide)
peptide: IRFTDGEGTPNPESHNNGDFEEIPEEYLQ
modifications: ends and bridges not checked; also: uniformly 15N-labelled
notes: Linker HV2(42-53); Uniformly 15N-labelled for the NMR work; also called mini-hirudin 2
For the molecule B1, the “IC50 (assay not given)” value with Human α-thrombin [1] is about 0.014 µM. The “IC50, T = 37° C.” value with Human α-thrombin [2] stood at 0.014 µM. Besides, the Ki (as a rule, the dissociation constant of the complex between target and ligand, obtained from inhibition or displacement) with Human α-thrombin [3] was 0.034 µM; with Human α-thrombin [4], 0.067 µM. For [dF]PRPRFTDGEWTWDDATKTWTWTEGDFEEIPEEYL (ends and bridges not checked, also called P4229) [BRI-T208], in the assay with Human α-thrombin [5], the “fold reduction of Ki as compared to BRI-T207” value is about 13 fold and the “fold reduction of Ki as compared to MH2-wZIP4” value is about 5 fold. The affinity in the assay with Human α-thrombin [6] corresponds to a Ki of 0.028 µM. [dF]PRIRFTDGEWTWDDATKTWTWTEGDFEEIPEEYL (ends and bridges not checked, also called P4238) [BRI-T218] gave a Ki in the assay with Human α-thrombin [7] of 0.014 µM. Consider VRFTDGEGTPKPQSHDNGDFEEIPEEYLQ (ends and bridges not checked) [MH1], for which the “IC50 (assay not given)” value in the assay with Human α-thrombin [1] was about 0.033 µM.

B2: TWE1 (peptide)
peptide 1: {Benzenesulfonyl(4-tBu)}-R[dPip]GC
peptide 2: CGSGSGSGSGSGSGSGSGDFEEIPEEYLQ
modifications: disulfide I:4-II:1; ends not checked; also: uniformly 15N-labelled
notes: Analog of BTI1 in which the two parts are joined by a disulfide bond
The molecule B2 showed a Ki in the assay with Human α-thrombin [8] of 0.0022 µM.

B3: BTI2 (peptide)
peptide: XRXGEWTYDDATKTFTVTEGDFEEIPEEYLQ
modifications: N-terminal Bbs (4-tert-butyl-benzenesulfonyl) on Arg; D-pipecolic acid (D-Pip) after Arg
notes: gb1 linker
With B3, in the assay with Human α-thrombin [9], the Kd (in general, a measure of binding affinity in units of concentration) was found to be 0.0028 µM.

B4: BTI4 (peptide)
peptide: B3 peptide with V17W
modifications: N-terminal Bbs (4-tert-butyl-benzenesulfonyl) on Arg; D-pipecolic acid (D-Pip) after Arg
For B4, the Kd with Human α-thrombin [9] worked out at 0.0028 µM. For the molecule IRFTDGSGSGSGSGSGSGDFEEIPEEYLQ (ends and bridges not checked, (GS)6 linker) [MH2-allGS], the Ki with Human α-thrombin [6] was 0.058 µM; with Human α-thrombin [3], 0.03 µM; with Human α-thrombin [4] it was 0.05 µM. For IRFTDGEGTGSGSGSGSGDFEEIPEEYLQ (ends and bridges not checked, GEGT(GS)4 linker; comparative control) [MH2-GS], in the assay with rat-tail collagen type I [10], the binding result is “no binding”. Further, the Ki in the assay with Human α-thrombin [3] amounted to 0.027 µM; with Human α-thrombin [4], 0.059 µM; in the assay with Human α-thrombin [11] it was 0.06 µM.

Molecule IRFTDGSWTWEGNKWTWKGDFEEIPEEYLQ (also called P4269) [MH2-wZIP1] registered a Ki in the assay with Human α-thrombin [6] of 0.0184 µM.

On to IRFTDGEWTWDDATKTWTWTEGDFEEIPEEYLQ (ends and bridges not checked; also: 15N-labelled) [MH2-wZIP4], for which, in the assay with Human α-thrombin [12], the “IC50, fibrinogen clotting assay, 25 °C” value amounted to 0.245 µM; the “IC50, fibrinogen clotting assay, 37 °C” value amounted to 0.154 µM; the “IC50, fibrinogen clotting assay, 42 °C” value turned out to be 0.148 µM. Also, the “KI (Thrombin Inhibition); IC50 by the clotting assay, 37 °C” value (from here on “KI (Thrombin Inhibition); IC50”) with Human α-thrombin [13] was 0.154 µM. The “IC50, T = 37° C.” value with Human α-thrombin [2] came out at 0.154 µM.

B5: BRI-T109 (peptide)
peptide: PRFTDGEWTWDDATKTWTWTEGDFEEIPEEYLQ
notes: MH2-wZIP4 with the first residue Ile replaced by Pro; also called P4230
On to B5, for which affinity in the assay with Human α-thrombin [6] was put at a Ki of 1.45 µM.

On to IRFTDGEWTYDDATKTFTVTEGDFEEIPEEYLQ (ends and bridges not checked) [MH2-gb1], for which, in the assay with Human α-thrombin [12], the “IC50, fibrinogen clotting assay, 25 °C” value was found to be 0.049 µM and the “IC50, fibrinogen clotting assay, 37 °C” value was 0.086 µM.

Consider IRFTDGEWTYDDATKTFTWTEGDFEEIPEEYLQ [MH2-wZIP5], for which, in the assay with Human α-thrombin [12], the “IC50, fibrinogen clotting assay, 25 °C” value worked out at 0.08 µM and the “IC50, fibrinogen clotting assay, 37 °C” value amounted to 0.107 µM. Besides, the “KI (Thrombin Inhibition); IC50” value with Human α-thrombin [13] stood at 0.107 µM. Regarding IRFTDGEWTWDDATKTWTVTEGDFEEIPEEYLQ [MH2-wZIP6], in the assay with Human α-thrombin [12], the “IC50, fibrinogen clotting assay, 25 °C” value amounted to 0.047 µM and the “IC50, fibrinogen clotting assay, 37 °C” value was 0.053 µM. Further, in the assay with Human α-thrombin [13], the “KI (Thrombin Inhibition); IC50” value came out at 0.053 µM. As to GEWTWDDATKTWTWTE-NH2 (Isolated linker peptide) [trpzip4-NH2], the “reduction of the deuterium coupling constant (collagen fibril alignment)” value (“reduction … (collagen fibril alignment)” for short) in the assay with rat-tail collagen type I [14] was over 1 Hz.

In the case of GEWTWDDATKTWTVTE-NH2 (Isolated linker peptide) [trpzip6-NH2], in the assay with rat-tail collagen type I [14], the “reduction … (collagen fibril alignment)” value was under 0.5 Hz. As for IRFTDG (Monovalent active-site moiety), the affinity with Human α-thrombin [15], expressed as Ki, was 7 µM.

In the case of FQPRPRFTDGEWTWDDATKTWTWTEGDFEEIPEEYL (also called P4223) [BRI-T207], in the assay with Human α-thrombin [6], the Ki amounted to 0.404 µM. In the assay with Human α-thrombin [6], WDPRIRFTDGEWTWDDATKTWTWTEGDFEEIPEEYL [BRI-T219] returned a Ki of 0.164 µM.

Consider GEWTYDDATKTFTWTE-NH2 (Isolated linker peptide) [trpzip5-NH2], for which, in the assay with rat-tail collagen type I [14], the “reduction … (collagen fibril alignment)” value was under 0.5 Hz. On to GEWTYDDATKTFTVTE-NH2 (Isolated linker peptide) [gb1-NH2], for which the binding result in the assay with rat-tail collagen type I [16] is reported as “no binding”.

In turn, IRFTDGGSWTWEGNKWTWKGGDFEEIPEEYLQ (also called P4268) [MH2-wZIP1-2G] displayed a Ki with Human α-thrombin [6] of 0.0166 µM.
